These results are taken from article PMC10781284, “Fluorescence Super-Resolution Imaging Chip for Gene Silencing Exosomes”.

The data set addresses PD-L1 (on HeLa exosomes) (human, UniProt Q9NZQ7 19-290). Put plainly: fluorescence colocalization on captured exosomes (AF647/PKH26); 1 nM aptamer; exosomes captured by CD63 aptamer; microfluidic channel, PBS (10 mM, pH 7.4) washes, 2% BSA block at room temperature; exosomes in culture medium; binding buffer of the aptamer not stated. Conditions: protein: native; label: 5' Alexa Fluor 647.

PD-L1 (on HeLa exosomes), sequence (Q9NZQ7 19-290): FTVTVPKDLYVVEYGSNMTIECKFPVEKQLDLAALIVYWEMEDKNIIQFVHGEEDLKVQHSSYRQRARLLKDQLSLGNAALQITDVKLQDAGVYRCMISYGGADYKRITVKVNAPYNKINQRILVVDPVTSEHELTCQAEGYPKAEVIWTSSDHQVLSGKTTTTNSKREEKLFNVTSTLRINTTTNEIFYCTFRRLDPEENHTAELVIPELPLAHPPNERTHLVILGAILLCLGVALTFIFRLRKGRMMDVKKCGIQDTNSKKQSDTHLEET

As for TACAGGTTCTGGGGGGTGGGTGGGGAACCTGTT (ssDNA) [PD-L1 aptamer (PD-L1 adaptor strand)], the binding result is reported as “binds”.
